First the molecules themselves.
B1: GST-LckBP1-#8 (other)
chain: AIALYDYQGEGSDELSFDPDDIITDIEMVDEGWWRGQCRGHFGLFPANYVKLL
B2: GST-LckBP1-#4 (other)
chain: MEAPTTAYKKTTPIEAASSGARGLKAKFESLAEEKRKREEEEKAQQMARQQQERKAVVKMSREVQQPSMPVEEPAAPAQLPKKISSEVWPPAESHLPPESQPVRSRREYPVPSLPTRQSPL
B3: GST-LckBP1-#5 (other)
chain: MEAPTTAYKKTTPIEAASSGARGLKAKFESLAEEKRKREEEEKAQQMARQQQERKAVVKMSREVQQ

The target in the assay is biotinylated GST (Schistosoma japonicum (Blood fluke), UniProt P08515 = GST, biotinylated (sites not given)). The assay is described as follows: blot of GST-LckBP1 deletion mutants probed with biotinylated GST. The source says: DNA deletion fragments were obtained by PCR, and subcloned into the pGEX-2T vector (FIG. 7). The fusion proteins produced in *E. coli* were subjected to SDS-PAGE, transferred to a nitrocellulose filter, and probed with biotinylated GST or GST-Lck SH3 protein.
As to B1, the binding result is “no binding”.
As to B2, the binding result was “no binding”.
With B3, the binding result was “no binding”.

The record behind these values is patent publication US5891673, “Lck binding protein” (Syntex (U.S.A.) Inc., dated 1999).
